Literature values in article PMC8494837.

Target: Ubiquitin (Homo sapiens) (UniProt P0CG47)

Sequence of CXCR4 (P61073 whole entry): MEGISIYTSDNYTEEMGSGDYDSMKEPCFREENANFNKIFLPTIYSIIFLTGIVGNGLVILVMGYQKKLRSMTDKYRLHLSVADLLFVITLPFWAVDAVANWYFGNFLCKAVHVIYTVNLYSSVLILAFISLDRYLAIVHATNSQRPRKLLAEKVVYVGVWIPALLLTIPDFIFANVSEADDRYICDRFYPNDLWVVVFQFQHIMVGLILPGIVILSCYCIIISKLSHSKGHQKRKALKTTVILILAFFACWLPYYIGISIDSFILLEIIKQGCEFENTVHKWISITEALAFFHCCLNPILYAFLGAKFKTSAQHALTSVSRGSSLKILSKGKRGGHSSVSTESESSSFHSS

## CXCR4 (from UniProt P61073)
  Kd: 84 nM
